Assay: label from the status in PepcDB records

Sequence	protein production
MSQRTSEENRYEQLHRFAAKIHSTMQIDDVLEEIICTLQNVYPAFTYHLLLSHDNHVCGNLPIKTLALDESEGQPAALRAFLTGQVQCEETAAPPRSVLYAPIKGVQAVYGVIQIIAPYAAPFPKREINFISLLAGTAGRALENAKLYEQSRRLEHHHHHH	not failed
MSAESASQIPKGQVDLLDFIDWSGVECLNQSSSHSLPNALKQGYREDEGLNLESDADEQLLIYIPFNQVIKLHSFAIKGPEEEGPKTVKFFSNKEHMCFSNVNDFPPSDTAELTEENLKGKPVVLKYVKFQNVRSLTIFIEANQSGSEVTKVQKIALYGST	not failed
MLAILGFVMMIVFMYLIMSNRLSALIALIVVPIVFALISGFGKDLGEMMIQGVTDLAPTGIMLLFAILYFGIMIDSGLFDPLIAKILSFVKGDPFKIAVGTAVLTMTISLDGDGTTTYMITIRAMLPLYKRLGMNRLVLAGIAMLGSGVMNIIPWGEPTARVLASLKLDTSEVFTPLIPAMIAGILWVIAVAYILGKKERKRLGVISIDHAPSSDPEAAPLKRPALQWFNLLLTVALMAALITSLLPLPVLFMTAFAVALMVNYPNVKEQQKRISAHAGNALNVVSMVFAAGIFTGILSGTKMVDAMAHSTRSLIPDAMGPHLPLITAIVSMPFTFFMSNDAFYFGVLPIIAEAASAYGIDAAEIGRASLLGQPVHLLSPLVPSTYLLVGMAGVSFGDHQKFTIKWAVGTTIVMTIAALLIGIISF	failed
MEHPLIRIVILAVLAYVGYALLCFLVQRTIIYPGRSLSVAGQPPDLPDIHPLWLTTPYGHVESWFLPATGSVAGDRRPVVLFFHGNGEVIDVLPDQAEGFRRMGMHVMLVEYPGYGRSGGSPSEEGITAAAVAAYDELVRRSDTDSGRMIAFGRSLGCGAACALSLRRPLAALILQSPFTSTRPFARQMLLPGFLARDVFDNRKALESYGGAVLILHGTEDDIIPVGHGRELARTVRRGCLIELRCGHNDCPPDWLEFWRIIEGFLEQEGVSGRK	failed
MTGIFLQAFVYLVAAVIAVPLAKRLGLGSVLGYLIAGVVIGPIIGLVGEETTTIQHFAEFGVVMMLFLVGLELEPKMLWAMRNRLMGLGGLQVGGTVAAIMGIALYFEQPWTIALAIGLIFALSSTAIVLQTFSEKGLTKTEGGKNAFSVLLFQDIAVIPMLAFIPLLALPELVEQAQNAVQTAAQHHDDLNLVADLPGWAYGIVITASIAIVVVGGHFLSRPLLKYVASSGLREIFTATALMLVIGIAALMSLVGLSPALGTFLAGVVLANSEFRHELESNIEPFKGLLLGLFFITVGAGINFSVLFGDFWLIMALTIGVMVLKALVLFILALIFRVKGSNRWLFTLSLAQAGEFGFVLLSFSVQNHVIPFELSQTLALVVAISMFLTPGLFILFDRVILPRFETQSNERESDTIEETGTVIIAGIGRFGQIVNRLLVSNGVTTVVLDHQANQVDNMRQIGTRAYFGDATRPDMLHTAGIEHAAALVVAIDNQESSVELVKYVKHTYPKVKIIARAFDRGHGYLLRQAGADVIESETYHSALEMGGHAMKALGIHPFFVEQQKDTYKRVEARKSEMLYQAWEDDSEGERFDNNFRELFIQLEEKMAEEMRKDRHDKLSRSERGWTPPPKGYAENFDGENVQDITPPKEEAI	failed
MFTTVITPRVSETDGVGHINNTTVPVWFEAGRHEIFKLFTPDLSFKRWRMVIIRMEVDYVNQMYYGQDVTVYTGIERIGNTSLTIYEEIHQNGVVCAKGRSVYVNFNFDTGRPEPIPDDIRVKLREHVWQPGE	not failed
MRPPLIERYRNLLPVSEKTPVISLLEGSTPLIPLKGPEEARKKGIRLYAKYEGLNPTGSFKDRGMTLAVSKAVEGGAQAVACASTGNTAASAAAYAARAGILAIVVLPAGYVALGKVAQSLVHGARIVQVEGNFDDALRLTQKLTEAFPVALVNSVNPHRLEGQKTLAFEVVDELGDAPHYHALPVGNAGNITAHWMGYKAYHALGKAKRLPRMLGFQAAGAAPLVLGRPVERPETLATAIRIGNPASWQGAVRAKEESGGVIEAVTDEEILFAYRYLAREEGIFCEPASAAAMAGVFKLLREGRLEPESTVVLTLTGHGLKDPATAERVAELPPPVPARLEAVAAAAGLL	not failed
MMHHALHIKNGIVIDPKNGVKAEKMDIFVKNGKIVEESEVKGEDVKVIDANNKLVVAGGVDMHAHIAGSKINTGRTMRPEEMRVVRNIAGKFRAAVGRVLLTSPLEHHHHHH	failed
MESESSGLSFPLGLYDAIIAHARSVFPEECCGLVAAPAGGAPIRVIPMENALHSPVRYEMNPKEQFQVQKNLRREGLEMWAIYHSHPVTRPYPSETDIRLAFYPELYYLLTSLAEDPPPLKAYTIQNGVVREIPLKVSPGES	failed
PVVVAVGAHREAAAVVDTAARLARDTASPLEVVHVRRTAVVEEQAADTETDEQAKAAVTAHLDRLGGMGVTATGQILTGVGDHAAAGRALARHAAEVGARTVAVGRSPRGPLAQFADGSFTSALTHAATCTVVLVDPNAEPR	failed
MYNREGIQGHILSFIDFSKASTFLDIGCGKGNDLIEISNRTCKEAKLYGVDVKANLIEFAKMQTEGDCRFTFNVYDVEDGLKFEDESIDVIISCNVLECIKNKSKLLHEIHRVLKPDGKIIMAHFDWDTQIFNAFDKNLYRKLIHTYSDWQQPWMNDCDAWMGRRISGVFNETGLFSGNIFTYVVTESEYKEGFRGYSLINEEFKALVEKGIIKNTEFELFKDQIIQLEKTGHYFYSVNLYTYVGQKK	failed
MSVSIAYLAVLLIWSTTPLGIVWSSESINPSLAVLLRMLIALVLGALVIKIRNIHIPWHKQAVKLYSFSALGIFGGMLCSYLSAAYLSSGIISLVFGLSPVISALLAKKILSEPNISGMRKFSMAISLIGLAVVCSDNFTLADDGIYGIIFILMAVFFFSLSGVLVKSVSLAIHPLATTVGALSVATPLFLVSWLLLDGTLPIETWQAKSLWATLYLGVFGSLIGFYAYFTVLQKLSASNVTLITLITPVIALTLGAVLNGEVINDKLILGAFMVLLGLSIYHFGHLLPRLKKKRARS	failed
MSQIEAVFFDCDGTLVDSEVICSRAYVTMFRQFGITLELTEVFRRFKGVKLYEIIDTISKEHGVALAKAELEPVYRAEVARLFDTELEAIAGANTLLESIKTPMCVVSNGPVSKMQHSLGKLGMLHHFPDLLFSGYDIQRWKPDPALMLHAANAMKVNVEKCILVDDSSAGAQSGIAAGMEVFYFCADPHNKPIDHPNVTTFTDLAQLPGLWKARGWEI	not failed
MELNISESRSRSIRCIVKLGGAAITCKNELEKIHDENLEVVACQLRQAMLEGSAPSKVIGMDWSKRPGSSEISCDVDDIGDQKSSEFSKFVVVHGAGSFGHFQASRSGVHKGGLEKPIVKAGFVATRISVTNLNLEIVRALAREGIPTIGMSPFSCGWSTSKRDVASADLATVAKTIDSGFVPVLHGDAVLDNILGCTILSGDVIIRHLADHLKPEYVVFLTDVLGVYDRPPSPSEPDAVLLKEIAVGEDGSWKVVNPLLEHTDKKVDYSVAAHDTTGGMETKISEAAMIAKLGVDVYIVKAATTHSQRALNGDLRDSVPEDWLGTIIRFSK	failed
MQQLQNVIETAFERRADITPANVDTVTREAITHVIDLLDTGALRVAEKIDGQWVTHQWLKKAVLLSFRINDNQVMEGAETRYYDKVPMKFAGYDEARFQREGFRVVPPATVRKGAFIARNTVLMPSYVNIGAFVDEGTMVDTWATVGSCAQIGKNVHLSGGVGIGGVLEPLQANPTIIEDNCFVGARSEVVEGVIVEEGSVISMGVFIGQSTRIYDRETGEVHYGRVPAGSVVVSGNLPSKDGSYSLYCAVIVKKVDAKTRSKVGINELLRTID	not failed
NNTPIGTLRIGCSSTMAQNVLARITAKMLKEYPGLSVNLVTGIPAPDLIADGLDVVIRVGALQDSSLFSRRLGSMPMVLCAAKSYLAQAGNPEKPADLAGHAWLEYSVRPDNEFVIIAPEGISTRLTPQGRFVTNDPMTL	failed
MDWLLTPGPVRLHPKALEALARPQLHHRTEAAREVFLKARGLLREAFRTEGEVLILTGSGTLAMEALVKNLFAPGERVLVPVYGKFSERFYEIALEAGLVVERLDYPYGDTPRPEDVAKEGYAGLLLVHSETSTGALADLPALARAFKEKNPEGLVGADMVTSLLVGEVALEAMGVDAAASGSQKGLMCPPGLGFVALSPRALERLKPRGYYLDLARELKAQKEGESAWTPAINLVLAVAAVLEEVLPRLEEHLALKAWQNALLYGVGEEGGLRPVPKRFSPAVAAFYLPEGVPYARVKEAFAQRGAVIAGGQGPLKGKVFRLSLMGAYDRYEALGVAGMFREVLEEILPAS	not failed
MSKTPRIRIPPEVRQYVFQRDKFQCQSCGKTGLETNLTIDHIIPLARGGQNDISNLHTLCFDCNRCKTDKLDSRFRRHFEI	failed
MRICMVSDFFYPSIGGVEEHVYNLSQMLLSLGHKIVVLTHAYGDCSGIRYVTGYLKVYYLPIKVCYNQCILPTAVCNVPMLRAVLLRERVEVVHGHSAFSALAHEALMVGSLLGLKTVFTDHSLFGFADLSAALTNNLLEVNLGMVNHAICVSHIGKENTVLRARVAKHRVSVIPNAVDTALFTPDPQQRPSNDIINIVVASRLVYRKGIDLLAGIIPRFKNTPNINFIIVGDGPKRDLLEEIREKTNMQERVQMVGAVEHNRVRDFLVRGHIFLNTSLTEAYCMAIVEAASCGLQVVSTSVGGIPEVLPKSLILLAEPEIDAIYAAILIAIDRHRKSSFKVSPSVGNGHLASDANGKVKRRRRRKVDTPISPTQLPAVSAPPADQNSSTEPVMCPYRCNELVETLYNWEDVALRTVKVYDRVLNERSFTTSELVFAVWQHGSWFLVFFVVAHFLMRLLELWRPRKHVEIAQDVQRRAS	failed
MKRKLVTSALPYVNNFPHLGNLIQVLSADVFARFCRLKEYETLYICGTDEYGTATETKALEEKKSPEELCSFYHAIHAEIYNWFNIAFDYFGRTSTPQQTEITQGIFNDLDKNGYITEHTIEQLYCPSCKRFLADRYVLGTCPSCSYDGARGDQCEHCGKLLDPTDLKEPRCSSCGAAPEVRSTTHLYINLPKIVPEYEKWMPKTAEEGRWSNNALQMSKSWLRDGLQERAITRDLKWGIPVPKKGFEDKVFYVWFDAPIGYISITKCWADLAGKDWKAWWLDQNDVELFQFIGKDNIPFHTVIFPCSLIGSGKNWTKLFHMSGTEYLNYENGKFSKSKGVGVFGNDAKESGIPADMWRFYIFYNRPEKNDTQFTWKDFQERVNSELIGNLCNLVNRTATFIHRYYDGKIPQVDGAKSGREDIKSMVKSLREAASASFKKITELSDWAELRDSFHEAFALSSVANKAFQDGEPWKRRETDPEYAEALMSELCYLIKDILILIHPYMPQYADQAAGFFGQKIWSGNIFDGKAPQFNKPEGSFLSWKNLGEREGLKTVENPVIIFKTLDNKVIDAYRERYSGSQKDRKKSEKGCSACKDSGSSKSDAAASSAKPEVKLSPAELFSKKIALKTAKIISVERHPDADKLYIEKLDDGSGEERTILSGLVPFLKEDEILGKTVIIADNLKPRKMRGIESKGMLLAASWYDEEEKEHVELLQAPWAAPGTPVILEGDADISDPEAVKAFYAQKPAAIDADTFFAAPILIEDYIPKIEGKKLLVAGKEMKLEKVKTGEAG	failed
MSQQKSDFADDADIDESLDELASEETIEETVENLEANGFEVIVVNSADDALAELQSLIPAEASVMNGHSTTLEEIGFDEYLSDGDHGWESLPEEIWSIDDDAKRQAARRESQTADYFLGGINGISQTGELVAADRSGSRIGAYPFAASNVVIVSGVNKIVPTLEDALDRLETVAYPLENERAKEAYGVDSAIAKQLILRQELEEGRTTVVLIREHLGYLEHHHHHH	not failed
MTKSKIIEIGPLVPAFEEEKIVILFGPTATNELREISVIHEFEAAPQSALSKGNTLQIGDQVYIIEEVGTEANKNLEELGHISIYFRSGQNEVLPGAIVVSPEVFPTLAIGDTIQF	failed
